{"source": "patent US20070196883A1", "about": "(UNIVERSITY OF DUNDEE, published 2007)", "key": {"[1]": {"molecular_target": "T1, His-PDK1 (Myc-PDK1 with an N-terminal hexahistidine sequence, from Sf21 insect cells) (human, UniProt O15530 1-556)", "T1 construct": "Purified by Ni-NTA agarose, >90% homogeneous; also called His-tagged PDK1", "T1 sequence": "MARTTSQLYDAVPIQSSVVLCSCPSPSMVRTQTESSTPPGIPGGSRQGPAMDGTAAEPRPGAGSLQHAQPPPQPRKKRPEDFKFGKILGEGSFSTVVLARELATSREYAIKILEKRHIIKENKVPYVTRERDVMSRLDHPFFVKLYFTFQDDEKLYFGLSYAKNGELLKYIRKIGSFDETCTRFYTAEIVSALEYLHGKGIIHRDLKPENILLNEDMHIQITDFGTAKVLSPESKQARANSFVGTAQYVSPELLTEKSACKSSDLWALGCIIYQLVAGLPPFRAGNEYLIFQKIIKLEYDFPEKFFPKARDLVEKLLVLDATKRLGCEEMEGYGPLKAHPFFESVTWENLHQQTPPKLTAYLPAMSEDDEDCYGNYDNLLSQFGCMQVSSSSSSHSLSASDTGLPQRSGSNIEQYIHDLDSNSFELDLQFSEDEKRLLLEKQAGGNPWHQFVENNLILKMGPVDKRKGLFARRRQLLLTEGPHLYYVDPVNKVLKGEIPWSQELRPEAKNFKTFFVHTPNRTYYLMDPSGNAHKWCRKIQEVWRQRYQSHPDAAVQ", "test": "SPR, His-PDK1 over the biotinylated peptide on Sensor Chip SA, steady state"}, "[2]": {"molecular_target": "T1, His-PDK1 (Myc-PDK1 with an N-terminal …)", "test": "SPR competition: 0.5 µM His-PDK1 mixed with 0-3 µM free Region B peptide, injected over the immobilised peptide"}, "[3]": {"molecular_target": "T1, His-PDK1 (Myc-PDK1 with an N-terminal …)", "test": "SPR competition with the immobilised Region B peptide"}, "GST-MSK1": {"molecular_target": "T2, GST-MSK1 (UniProt O75582 1-802)", "T2 construct": "not shown: glutathione S-transferase (GST) tag", "T2 sequence (O75582 whole entry)": "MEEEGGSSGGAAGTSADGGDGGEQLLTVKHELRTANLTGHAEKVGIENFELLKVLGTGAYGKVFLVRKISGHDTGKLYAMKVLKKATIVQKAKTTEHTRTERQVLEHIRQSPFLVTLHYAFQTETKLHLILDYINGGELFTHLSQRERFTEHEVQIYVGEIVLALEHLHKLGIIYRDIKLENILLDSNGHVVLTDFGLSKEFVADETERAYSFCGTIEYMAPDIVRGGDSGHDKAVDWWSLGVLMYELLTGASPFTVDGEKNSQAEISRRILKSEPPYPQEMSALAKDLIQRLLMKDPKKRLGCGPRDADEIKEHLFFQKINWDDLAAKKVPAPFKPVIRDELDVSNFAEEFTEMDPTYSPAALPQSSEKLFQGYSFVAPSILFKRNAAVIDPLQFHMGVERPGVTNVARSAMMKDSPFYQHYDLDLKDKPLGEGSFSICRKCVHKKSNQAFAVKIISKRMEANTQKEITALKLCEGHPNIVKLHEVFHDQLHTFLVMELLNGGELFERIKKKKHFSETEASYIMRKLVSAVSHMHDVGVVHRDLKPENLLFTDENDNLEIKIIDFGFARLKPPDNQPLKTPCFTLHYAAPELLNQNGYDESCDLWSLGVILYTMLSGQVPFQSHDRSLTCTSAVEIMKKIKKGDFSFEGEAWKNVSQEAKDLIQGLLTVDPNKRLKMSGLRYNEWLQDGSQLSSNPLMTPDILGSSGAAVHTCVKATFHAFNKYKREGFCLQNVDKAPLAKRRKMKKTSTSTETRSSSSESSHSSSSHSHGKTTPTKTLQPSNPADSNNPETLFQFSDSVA", "test": "GST pull-down from 293 cells, PDK1 immunoblot and activity"}}, "note": "Ends that are not written are not given here. * marks the point of attachment. Biotin = O=C1N[C@H]2[C@H](CS[C@H]2CCCCC(=O)*)N1"}
{"binder": "REPRILSEEEQEMFRDFDYIADWC(Biotin) (also called Region B peptide, biotinylated)", "note": "[immobilised and biotinylated 24 residue synthetic peptide corresponding to the Region B peptide]", "values": [{"measurement": "Kd", "setting": "[1]", "value": 800, "unit": "nM"}]}
{"binder": "REPRILSEEEQEMFRDFDYIADWC (also called free peptide; wild type peptide)", "note": "[Region B peptide (24 residue synthetic peptide corresponding to Region B of PIF)]", "values": [{"measurement": "Kd", "setting": "[2]", "value": 1500, "unit": "nM"}]}
{"binder": "REPRILSEEEQEMFRDFAYIADWC (Range 961-984 is worked out from 'C-terminal 24 amino acids')", "note": "[D978A-Region B peptide]", "values": [{"measurement": "fold less strongly than the Region B peptide", "setting": "[3]", "value": 10, "unit": "fold"}]}
{"binder": "endogenous PDK1 of 293 cells (enzyme, UniProt O15530 1-556, looked up, Two bands (63 and 66 kDa) both co-purified with GST-PIF; also called PDK1 immunoreactive bands at 63 kDa and 66 kDa) MARTTSQLYDAVPIQSSVVLCSCPSPSMVRTQTESSTPPGIPGGSRQGPAMDGTAAEPRPGAGSLQHAQPPPQPRKKRPEDFKFGKILGEGSFSTVVLARELATSREYAIKILEKRHIIKENKVPYVTRERDVMSRLDHPFFVKLYFTFQDDEKLYFGLSYAKNGELLKYIRKIGSFDETCTRFYTAEIVSALEYLHGKGIIHRDLKPENILLNEDMHIQITDFGTAKVLSPESKQARANSFVGTAQYVSPELLTEKSACKSSDLWALGCIIYQLVAGLPPFRAGNEYLIFQKIIKLEYDFPEKFFPKARDLVEKLLVLDATKRLGCEEMEGYGPLKAHPFFESVTWENLHQQTPPKLTAYLPAMSEDDEDCYGNYDNLLSQFGCMQVSSSSSSHSLSASDTGLPQRSGSNIEQYIHDLDSNSFELDLQFSEDEKRLLLEKQAGGNPWHQFVENNLILKMGPVDKRKGLFARRRQLLLTEGPHLYYVDPVNKVLKGEIPWSQELRPEAKNFKTFFVHTPNRTYYLMDPSGNAHKWCRKIQEVWRQRYQSHPDAAVQ", "values": [{"measurement": "binding result", "setting": "GST-MSK1", "value": "no binding"}]}
